Reference: publication PMC8932917

Target: Biotinylated FcγRIIIa (human) (UniProt P08637)
Test: BLI

Chain of UniProt P08637 (P08637 21-186): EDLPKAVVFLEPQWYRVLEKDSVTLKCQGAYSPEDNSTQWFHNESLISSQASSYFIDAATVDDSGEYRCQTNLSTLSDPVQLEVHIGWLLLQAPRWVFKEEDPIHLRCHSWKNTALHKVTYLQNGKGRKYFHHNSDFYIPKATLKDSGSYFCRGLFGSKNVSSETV

fold larger kon than Ada: 3.5 fold | fold larger kon than Rtx: 4 fold | fold lower KD than Ada: > 20 fold | fold lower KD than Rtx: > 20 fold | fold smaller koff than Ada: 6 fold | fold smaller koff than Rtx: 5 fold
Substance: Mogamulizumab, anti-CCR4 humanized IgG1 (antibody)
